Measured values reported in paper doi:10.1101/2025.05.23.655736 (bioRxiv, 2025).

Molecular target: T1, CHAP domain of Streptococcus pneumoniae PcsB (residues A274-D392) (Streptococcus pneumoniae, UniProt Q8DMY4 274-392)
T1 sequence (looked up): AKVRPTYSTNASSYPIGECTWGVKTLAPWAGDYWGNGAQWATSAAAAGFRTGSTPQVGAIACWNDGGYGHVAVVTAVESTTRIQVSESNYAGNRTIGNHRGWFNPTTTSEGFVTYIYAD
Test: SPR

For AQKAA (D-isoglutamine at position 2 (iQ); D-alanine at positions 4 and 5) [synthetic pneumococcal stem pentapeptide L-Ala-D-isoGln-L-Lys-D-Ala-D-Ala], the “fold change of KD against AEKADAD” value was roughly 15 fold.
